By stoichiometry N is commonly meant the number of molecules, sites or subunits per partner or assembly. As usually defined, the Kd is the equilibrium constant for the complex coming apart. The low end stands for tighter binding, the high end for weaker binding.

Data set [1] concerns the molecule itself. The data set is described as follows: SEC-MALS; 0.2 ml of his-tagged p15 at 6 mg/ml in 50 mM MES pH 6 on Superdex 200 10/30 in 50 mM MES pH 6. On the technique in general: In gel filtration, larger molecules generally elute earlier.
Data set [2] concerns the molecule itself. The data set is described as follows: ITC; dilution experiment, dimer to monomers: p15 at 6 mg/ml (375 μM) in 50 mM MES pH 6 injected into buffer alone, 25°C, dimer dissociation model.
Data set [3] deals with the molecule itself. The data set is described as follows: cross-linking; BS3, room temperature, SDS-PAGE; protein at 6 mg/ml in 50 mM MES pH 6.

Residue numbers refer to the chain shown, from its start.

B1: FIV p15 matrix protein, full-length, with C-terminal 6-His tag (natural protein)
chain: MGNGQGRDWKMAIKRCSNVAVGVGGKSKKFGEGNFRWAIRMANVSTGREPGDIPETLDQLRLVICDLQERREKFGSSKEIDMAIVTLKVFAVAGLLNMTVSTAAAAENMYSQMGLDTRPSMKEAGGKEEGPPQAY
notes: matrix protein p15, the N-terminal subunit of the Gag polyprotein of Feline Immunodeficiency Virus, Petaluma strain (plasmid FIV-34TF10); not myristoylated; also called p15-His; full-length p15; not shown: His6, C-terminal, kept
Regarding B1, in data set [1], the “stoichiometry N” value is 2. In data set [2], this protein showed a Kd of about 10 µM.

B2: FIV p15-Δ120, C-terminal-truncated p15 (truncated after Ser120) with C-terminal 6-His tag (domain or fragment)
chain: MGNGQGRDWKMAIKRCSNVAVGVGGKSKKFGEGNFRWAIRMANVSTGREPGDIPETLDQLRLVICDLQERREKFGSSKEIDMAIVTLKVFAVAGLLNMTVSTAAAAENMYSQMGLDTRPS
notes: matrix protein p15 of the Gag polyprotein of Feline Immunodeficiency Virus, Petaluma strain, truncated after Ser120 (lacks the last 14 residues); residues 2 to 120 seen in the crystal; also called truncated FIV p15; not shown: His6, C-terminal, kept
For the protein B2, the binding result in data set [3] is listed as “binds”.

B3: FIV p15-Δ120-R40S (domain or fragment)
chain: B2 chain with R40S
notes: matrix protein p15 of the Gag polyprotein of Feline Immunodeficiency Virus, truncated after Ser120 as m3, with Arg40 mutated to serine; Made from the truncated p15 construct
For B3, the binding result in data set [3] was “binds”.

Source of the values: publication PMC3706335, “Biophysical characterization and crystal structure of the Feline Immunodeficiency Virus p15 matrix protein” (Retrovirology, 2013).
